Test results published in publication PMC12091997.

Experiments:
[1] = target: His6-tagged human GBP1 C589S (CaaX box mutant) (human) (UniProt P32455); experiment: SEC; Superdex 200 10/300 GL on AKTA FPLC; 100 ug protein; 20 mM Tris (7.5), 140 mM NaCl, 2 mM MgCl2 with 200 uM GDP-AlF4- (transition state analogue); monomer to dimer
[2] = target: tag-free recombinant human GBP1, farnesylated (human) (UniProt P32455); experiment: cryo-EM structure; cryo-electron tomography (300 kV) with sub-tomogram averaging of tag-free GBP1 coat assembled on Stm ΔwaaG::pBAD-ftsZ OMVs/minicells in the presence of GTP; 12,858 particles; dimer mask and monomer mask

Substance	stoichiometry N [1]	stoichiometry N [2]
His6-tagged human GBP1 C589S (CaaX box mutant) (from UniProt P32455 1-592) (natural protein)	2	–
tag-free recombinant human GBP1, farnesylated (from UniProt P32455 1-592) (natural protein)	–	2
